From patent US20240197828A1 (FEINSTEIN INSTITUTES FOR MEDICAL RESEARCH, published 2024)
Each block holds one binder with its values, some of them ahead of it.

B1: recombinant murine (rm) CIRP (ligand, mouse, UniProt P60824 1-172, looked up)
chain: MASDEGKLFVGGLSFDTNEQALEQVFSKYGQISEVVVVKDRETQRSRGFGFVTFENIDDAKDAMMAMNGKSVDGRQIRVDQAGKSSDNRSRGYRGGSAGGRGFFRGGRSRGRGFSRGGGDRGYGGGRFESRSGGYGGSRDYYASRSQGGSYGYRSSGGSYRDSYDSYATHNE
notes: For SPR it was bought (Cat # CSB-EP613483He0); For the cell assays it was made in the lab and, in the uptake experiments, labelled with FITC; also called eCIRP

Experiments:
[1] = target: T1, recombinant murine MFG-E8 (rmMFG-E8) (mouse, UniProt P21956 23-463); test: SPR (Biacore/OpenSPR); rmCIRP immobilised, rmMFG-E8 as analyte at 15.7-250 nM; 1:1 fit; mouse proteins
T1 construct: For SPR it was bought from R&D Systems (Cat #2767-MF-050); For the cell assays it was made in the lab; also called milk fat globule-epidermal growth factor-factor VIII; AlexaFluor568-rmMFG-E8
T1 sequence: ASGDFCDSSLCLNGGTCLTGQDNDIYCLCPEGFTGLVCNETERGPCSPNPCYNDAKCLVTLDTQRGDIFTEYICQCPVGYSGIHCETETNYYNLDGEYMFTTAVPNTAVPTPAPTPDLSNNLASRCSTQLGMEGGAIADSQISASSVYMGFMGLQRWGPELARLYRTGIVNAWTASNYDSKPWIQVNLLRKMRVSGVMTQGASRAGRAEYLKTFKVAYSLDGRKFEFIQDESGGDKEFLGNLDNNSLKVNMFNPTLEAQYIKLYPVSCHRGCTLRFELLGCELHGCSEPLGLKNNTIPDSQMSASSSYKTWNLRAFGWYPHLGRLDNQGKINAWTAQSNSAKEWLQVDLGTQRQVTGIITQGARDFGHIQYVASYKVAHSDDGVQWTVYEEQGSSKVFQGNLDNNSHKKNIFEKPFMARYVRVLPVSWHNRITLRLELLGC
Description: (§1) To examine the direct interaction between rmCIRP and rmMFG-E8, surface plasmon resonance (SPR), OpenSPR (Nicoya), was performed between rmCIRP and rmMFG-E8. rmCIRP was immobilized on carboxyl sensor and rmMFG-E8 was injected as an analyte in concentrations of 15.7 nM to 250 nM. Binding reactions were performed in DPBS, with Calcium and Magnesium, 0.05% P20, 1% BSA, and pH 7.4. In parallel experiments, binding of MOP3 to rmCIRP (analyte) was performed with concentrations of 0.5 μm to 2 μM, and binding of MOP3 to αᵥβ₃-integrin (analyte) was performed in concentrations of 31.25 nM to 125 nM. All binding reactions were performed in PBS 0.05% P20, pH7.4. Briefly, the carboxyl sensor was first cleaned by injection 10 mM HCL 150 μl, followed by injection of 150 μl of the mixture of 1 aliquot of N-ethyl-N′-[3-[…]]-carbodiimide (EDC) and 1 aliquot of N-hydroxysuccinimide (NHS) to activate the sensor surface. An aliquot of 200 μl of 50 μg/ml of the ligand diluted in 10 mM sodium acetate (pH 5.5) was injected at 20 μl/minutes into flow cell-channel-2 of the sensor for immobilization. Next, 150 μl of 1 M […] (pH 8.5) was injected to deactivate the remaining active sites on channel 1&2. […] To evaluate binding, the analyte was injected into flow cell-1 and flow cell-2 and increasing concentrations and real-time interaction data were analyzed by TraceDrawer (Nicoya). […]

[2] = target: T2, recombinant human MFG-E8 (rhMFG-E8) (human, UniProt Q08431 24-387, limits assumed); test: SPR (Biacore); human proteins
T2 sequence (looked up): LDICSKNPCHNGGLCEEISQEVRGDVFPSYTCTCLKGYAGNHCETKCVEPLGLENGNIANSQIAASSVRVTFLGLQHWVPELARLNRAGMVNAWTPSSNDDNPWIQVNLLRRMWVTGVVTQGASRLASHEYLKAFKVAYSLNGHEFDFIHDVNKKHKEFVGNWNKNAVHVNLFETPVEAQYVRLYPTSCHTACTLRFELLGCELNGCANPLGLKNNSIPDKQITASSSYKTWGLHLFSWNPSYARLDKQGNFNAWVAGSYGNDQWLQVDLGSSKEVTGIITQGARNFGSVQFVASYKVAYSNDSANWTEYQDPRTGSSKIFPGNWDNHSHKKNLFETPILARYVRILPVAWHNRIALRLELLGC

[3] = target: B1; test: SPR (Biacore/OpenSPR); rmCIRP as analyte at 0.5-2 µM; 1:1 fit; Example 2, Biacore
Description: as §1

[4] = target: B1; test: SPR (Example 1); Example 1; paragraph 73 gives a separate value of 3.1×10^-7 M
[5] = target: T3, αvβ3-integrin (recombinant, R&D Systems Cat #7889-AV-050); test: SPR (Biacore/OpenSPR); αvβ3-integrin as analyte at 31.25-125 nM; 1:1 fit
T3 construct: Used as the analyte in SPR over immobilised MOP3; also called αvβ3-integrin receptor; auß3-integrin
Description: as §1

T3 sequence (P43406 31-988, chain 1 of 2): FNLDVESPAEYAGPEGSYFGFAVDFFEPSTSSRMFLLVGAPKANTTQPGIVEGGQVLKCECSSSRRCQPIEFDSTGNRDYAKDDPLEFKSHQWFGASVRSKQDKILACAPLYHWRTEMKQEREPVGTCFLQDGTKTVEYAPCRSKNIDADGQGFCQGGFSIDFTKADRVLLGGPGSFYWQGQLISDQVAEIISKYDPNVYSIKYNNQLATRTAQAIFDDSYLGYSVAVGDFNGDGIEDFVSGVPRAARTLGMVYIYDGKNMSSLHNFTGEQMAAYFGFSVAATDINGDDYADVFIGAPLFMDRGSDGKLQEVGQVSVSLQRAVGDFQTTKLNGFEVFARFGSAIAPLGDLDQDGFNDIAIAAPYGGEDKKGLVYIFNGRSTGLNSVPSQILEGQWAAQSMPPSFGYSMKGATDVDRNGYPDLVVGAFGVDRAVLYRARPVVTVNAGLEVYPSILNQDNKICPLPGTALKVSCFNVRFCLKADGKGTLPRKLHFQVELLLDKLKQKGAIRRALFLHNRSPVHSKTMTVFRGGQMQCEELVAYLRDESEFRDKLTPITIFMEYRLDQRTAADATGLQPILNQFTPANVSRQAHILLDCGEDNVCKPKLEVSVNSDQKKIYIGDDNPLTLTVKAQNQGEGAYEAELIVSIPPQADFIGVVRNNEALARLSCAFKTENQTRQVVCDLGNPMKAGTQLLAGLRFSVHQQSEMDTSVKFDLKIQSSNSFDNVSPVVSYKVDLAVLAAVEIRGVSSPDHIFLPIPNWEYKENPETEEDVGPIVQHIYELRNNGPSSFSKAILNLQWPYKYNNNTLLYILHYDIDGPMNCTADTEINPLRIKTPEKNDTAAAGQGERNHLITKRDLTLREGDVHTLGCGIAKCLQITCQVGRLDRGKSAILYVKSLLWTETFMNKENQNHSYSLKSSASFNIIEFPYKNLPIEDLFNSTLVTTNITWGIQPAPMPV
T3 sequence (O54890 26-717, chain 2 of 2, further chain): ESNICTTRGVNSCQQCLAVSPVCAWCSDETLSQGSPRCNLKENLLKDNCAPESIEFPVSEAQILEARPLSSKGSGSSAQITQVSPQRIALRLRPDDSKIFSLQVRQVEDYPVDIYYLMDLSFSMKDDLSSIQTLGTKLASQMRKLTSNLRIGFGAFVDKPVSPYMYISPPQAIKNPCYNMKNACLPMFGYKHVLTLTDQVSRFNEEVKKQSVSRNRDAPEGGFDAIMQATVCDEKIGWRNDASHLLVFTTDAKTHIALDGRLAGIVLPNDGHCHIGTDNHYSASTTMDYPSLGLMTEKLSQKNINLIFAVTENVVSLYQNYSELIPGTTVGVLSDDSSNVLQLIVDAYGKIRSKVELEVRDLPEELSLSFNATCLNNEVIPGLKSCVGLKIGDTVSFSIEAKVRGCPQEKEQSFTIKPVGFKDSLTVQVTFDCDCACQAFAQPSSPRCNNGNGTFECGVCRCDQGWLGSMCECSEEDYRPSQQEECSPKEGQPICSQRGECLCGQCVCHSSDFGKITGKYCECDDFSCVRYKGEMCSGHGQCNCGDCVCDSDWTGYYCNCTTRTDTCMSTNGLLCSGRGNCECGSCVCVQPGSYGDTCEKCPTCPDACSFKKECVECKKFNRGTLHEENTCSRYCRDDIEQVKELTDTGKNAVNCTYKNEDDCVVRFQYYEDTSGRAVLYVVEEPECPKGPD

Binder: B1
- Kd [1]: 200 nM

- Kd [2]: 29 nM
B2: recombinant human CIRP (rhCIRP) (ligand, UniProt Q14011 1-172, looked up)
chain: MASDEGKLFVGGLSFDTNEQSLEQVFSKYGQISEVVVVKDRETQRSRGFGFVTFENIDDAKDAMMAMNGKSVDGRQIRVDQAGKSSDNRSRGYRGGSAGGRGFFRGGRGRGRGFSRGGGDRGYGGNRFESRSGGYGGSRDYYSSRSQSGGYSDRSSGGSYRDSYDSYATHNE
notes: The source of rhCIRP is not described in the methods

- Kd [3]: 310 nM
- Kd [4]: 13 nM
- Kd [5]: 776 nM
B3: MFG-E8-derived oligopeptide 3 (MOP3) (peptide)
peptide: RGDSSSYKTWNLRAFGWY
notes: Synthetic 18-residue chimeric peptide: RGD followed by 15 residues of the mouse MFG-E8 discoidin domain 2
